Measurements taken from US7658917 (PRAECIS PHARMACEUTICALS, dated 2010).

B1: unmodified Aβ21-35 (peptide)
peptide: AEDVGSNKGAIIGLM
B2: unmodified Aβ26-40 (peptide)
peptide: SNKGAIIGLMVGGVV
B3: Aβ1-20, 26-40(Δ21-25) (peptide)
peptide: DAEFRHDSGYEVHHQKLVFFSNKGAIIGLMVGGVV
B4: Aβ1-10, 16-40(Δ11-15) (peptide)
peptide: DAEFRHDSGYKLVFFAEDVGSNKGAIIGLMVGGVV
B5: Aβ1-15, 21-40(Δ16-20) (peptide)
peptide: DAEFRHDSGYEVHHQAEDVGSNKGAIIGLMVGGVV
B6: unmodified Aβ1-15 (peptide)
peptide: DAEFRHDSGYEVHHQ

What follows are binders tested against natural β-amyloid peptide β-AP1-40 (human) (assay: cell-based or functional assay).
With B1 the “% Inhibition of Plateau; nucleation assay; 100 mole %” value (shortened to “% Inhibition of Plateau”) was ~0% and the “Fold Increase in Lag Time; nucleation assay; 100 mole %” value (“Fold Increase in Lag Time … 100 mole %” below) was ~1 fold.
In the case of B2, the “% Inhibition of Plateau” value is reported as ~0% and the “Fold Increase in Lag Time … 100 mole %” value is reported as 0.8 fold.
In the case of B3, the “% Inhibition of Plateau” value is reported as ~0% and the “Fold Increase in Lag Time … 100 mole %” value is reported as 2.37 fold.
With B4 the “% Inhibition of Plateau” value was ~0% and the “Fold Increase in Lag Time … 100 mole %” value was ~1.2 fold.
For B5, the “% Inhibition of Plateau” value was ~0% and the “Fold Increase in Lag Time … 100 mole %” value was 1.55 fold.
In the case of B6, the “% Inhibition of Plateau” value is reported as 18% and the “Fold Increase in Lag Time … 100 mole %” value is reported as ~1 fold.
